The nature of the data set: Corneal penetration of radioactive topical ocular indolicidin formulation. In kind it is in vivo, New Zealand White Rabbits. On the procedure:
The objective of this study was to determine the corneal penetration potential of a ^3H-labelled indolicidin molecule. The ^3H labeled L-indolicidin; L-IND was tested for corneal penetration using New Zealand White Rabbits (Western Oregon Rabbit Co.). The rabbit is one of the model species for the assessment of toxicity and is one of the species recommended for that purpose by toxicity testing guidelines of all regulatory agencies. See “Animal Models in the Evaluation of Chemotherapy of Ocular Infections” in Experimental Models in Antimicrobial Chemotherapy, Vol 1, p 187-211.
Administration of ^3H-L-IND was by epicomeal application into both eyes, 20 μL L-IND once hourly for six applications. The animals were euthanized immediately prior to harvesting of aqueous humor.
Male animals were initiated as young adults and weighed 2-3 kg. Two animals were assigned to the test (2/group; one treatment group). […]
Clinical signs were evaluated immediately after 1st dose administration and immediately prior to euthanasia and necroscopy. […]
Evaluations were confined to the eye. […] An estimate of the total volume of aqueous humor harvested was recorded and analyzed for ^3H content. […]
The two samples of aqueous humor from each of the rabbits were analyzed for their radioactivity levels. […]

The values below come from patent publication US6482799B1, “Self-preserving multipurpose ophthalmic solutions incorporating a polypeptide antimicrobial” (The Regents of the University of California, priority 1999, dated 2002).

Where no end group is shown, it is not given here.

For “^3H-Indolicidin: ^3H-labelled indolicidin molecule for the corneal penetration study (ILPWKWPWWPWRR-NH2; also: tritium label; UniProt P33046 131-143, looked up)”, the “radioactivity level in aqueous humor” value (20 μL epicorneal, once hourly for six applications, both eyes) is recorded as “equal to that of background counts”. Moreover, for the setting “topical ocular, six applications”, the corneal penetration entry is recorded as “did not penetrate the cornea”.
